Test results reported in US10899824B2 (Polichem S.A., priority 2016, dated 2021).

Columns and labels:
HSV-2 MS = test: Post-HSV entry combination (synergy) assay, combination index; assay type: cell-based; conditions: 0.5 ug/mL
Method: Results obtained in the double curve assay were then analysed in silico in a ComboSyn analysis (CompuSyn for Drug Combinations and for General Dose-Effect Analysis by Ting-Chao Chou Memorial Sloan-Keltering Cancer Center New York, N.Y. and Nick Martin Massachustts Institute of Technology Cambridge, Mass.) to evaluate the potential synergies between IgGA and ACV, through the calculation of Combination Index (CI) and Dose Reduction Index (DRI).
The combination index (CI) according to Chou 2006 (23) indicates nearly additive activity in the range of 0.9-1.1, synergism under 0.9, strong synergism between 0.1 and 0.3 and very strong synergism under 0.1. Values of CI over 1.1 indicate antagonism. […]
The first step in IgGA/FOS combination activity evaluation has been the assessment of drug susceptibility for the two chosen HSV isolates already used for the Example 2. […] Combination index was calculated as in Example 2 to assess the synergism between IgGA and FOS. […]
The first step in IgGA/PCV combination activity evaluation has been the assessment of drug susceptibility for the two chosen HSV isolates (HSV-1 LV and HSV-2 MS). […] Combination index was calculated as in Example 2 to assess the synergism between IgGA and PCV. […]

HSV infected cells = test: IIF binding assay of ScFv A; conditions: ScFv format
Method: ScFv gene of IgGA was successfully constructed and cloned into expression vector. ScFv format small scale production of IgGA was performed. The binding activity of ScFv A was evaluated by IIF assays on HSV infected cells.

HSV-2 [1] = test: Cell-to-cell infection inhibition (plaque areas, post-adsorption); assay type: cell-based; conditions: Fabs 200 ug/mL, IgGs 100 ug/mL
Method: (§1) Post post-adsorption assays have been performed in order to evaluate the contribution of IgGA in inhibiting “cell-to-cell” infection by measuring the plaque areas resulting from infected cells treated or untreated with FabA or IgGA.
(§2) Fabs tested in post-adsorption cell-to-cell infection inhibition assays have also been preliminary used at a concentration of 50 and 200 ug/mL against HSV-1 and HSV-2 tested isolates respectively*.
(§3) IgGs tested in post-adsorption “cell-to-cell” infection inhibition assays have also been preliminary used at a concentration of 25 and 100 ug/mL against HSV-1 and HSV-2 tested isolates respectively*.

HSV-1 [2] = test: as above; assay type: cell-based; conditions: Fabs 50 ug/mL, IgGs 25 ug/mL
Method: as §1, §2, §3

HSV-2 [3] = test: Post adsorption inhibition of infection (plaque count); assay type: cell-based; conditions: IgG 100 ug/mL added 30 minutes after infection; 48 h; VERO E6
Method: (§4) Post-adsorption assays have been developed in order to speculate on possible administration of IgGA for the treatment of HSV infection, after the beginning of virus active replication within the host.
(§5) The first step of experimental approaches, involving post-HSV adsorption evaluation of FabA or IgGA, is the infection of VERO E6 cells with a standard amount of HSV not previously treated with the FabA or IgGA.
(§6) FabA or IgGA is added to the infected cells only after 30 minutes from virus infection. The infection is then carried out for 48 h in order to appreciate the HSV lysis plaques on VERO E6 cells. The experimental results have been evaluated by counting the plaques for infected cells receiving (post-HSV infection) FabA or IgGA compared to virus experimental positive control.
(§7) Fabs tested in post-adsorption assays have been used at a concentration of 50 and 200 ug/mL against HSV-1 and HSV-2 tested isolates respectively*.
(§8) IgGs tested in post-adsorption assays have been used at a concentration of 25 and 100 ug/mL against HSV-1 and HSV-2 tested isolates respectively*.

HSV-1 [4] = test: as above; assay type: cell-based; conditions: IgG 25 ug/mL added 30 minutes after infection; 48 h; VERO E6
Method: as §4, §5, §6, §7, §8

HSV-1 tested isolates = test: Neutralising activity against clinical isolates (pre-incubation with virus); assay type: cell-based; conditions: isolates with different susceptibility to Acyclovir; pre-incubation 1 h at 37° C.
Method: (§9) The neutralising activity of FabA or IgGA was evaluated by pre-incubating (1 h at 37° C.) the IgGA with the virus and adding the IgGA/virus-mixture to cell monolayer.

HSV-2 tested isolates = test: as above; assay type: cell-based; conditions: isolates with different susceptibility to Acyclovir; pre-incubation 1 h at 37° C.
Method: as §9

HSV-1 HF strain = test: Emergence of escape mutants under selective pressure; assay type: cell-based; conditions: selective pressure at 5 and 10 ug/mL; sequential infection rounds
From the text: In order to evaluate the presence of escape virus mutants generated under selective pressure of IgGA, HSV-1 infected VERO-E6 cells have been treated with increasing concentrations of Fab A. More in details, VERO cells have been cultured in T25 flasks in the experimental conditions extensively described in the previous reports (“virus propagation techniques”). Cell monolayers have been then infected by HSV-1 HF strain using 50 pfu/mL of cell free virus. […] […] After three days the infected cell media have been collected and centrifuged in order to use medium centrifuged supernatants for new cell infection rounds. […] Five sequential identical infection rounds have been performed in the presence of the two concentrations of IgGA and control IgG above described. […] In order to test the capability of virus cultured in the constant presence of IgGA to escape from IgGA inhibitory activity the cell free supernatants belonging to the final infections in the presence of IgGA have been incubated 1 h at 37° C. in the presence of high IgGA concentration. After pre-incubation the neutralization mix has been used to infect new VERO-E6 cells.
VERO-E6 monolayers were infected with HSV-1 HF strain using 50 pfu/mL of cell free virus. After virus complete adsorption, the infected cells were treated for three days with subinhibitory concentrations of IgGA, namely 0.2 mg/ml and 1 mg/ml. […]

O=C(O)P(=O)(O)O [FOS, Foscarnet]
activity of FOS alone against HSV-2 (HSV-2 MS): nearly ineffective

B1: ScFv A: single chain antibody from VL and VH of Fab A with (Gly3Ser)3 linker and His tag (protein)
scFv: ELTQSPGTLSSSPGHRATLSCKASAPLGSNHMAWYQQKPGQAPRLLIYGASTRATGVPARFTGSGSGTDFTLTISSLQPEDFATYYCQQANSFPRTFGQGTKVEIKGGGSGGGSGGGSLESGGGVVQPGRSLRLSCAASGFTFTTFAMHWVRQAPGKGLEWLAFISYDGSNKYYADSVKGRFTISRDNSKNTLYLQMNSLRAEDTSIYYCAREVWNYADYWGQGALVTVSS
modifications: left off: small tags and cut ends
notes: single chain antibody from VL and VH of Fab A with (Gly3Ser)3 linker and His tag
IIF signal and binding level (HSV infected cells): high IIF background signal and low binding | recognition of HSV infected cells in IIF (HSV infected cells): able to recognize HSV infected cells

B2: IgGA: IgG1 Fab Ex2 converted into a full IgG1, identified as IgGA (antibody, V domains shown)
VH: LESGGGVVQPGRSLRLSCAASGFTFTTFAMHWVRQAPGKGLEWLAFISYDGSNKYYADSVKGRFTISRDNSKNTLYLQMNSLRAEDTSIYYCAREVWNYADYWGQGALVTVSS
VL: ELTQSPGTLSSSPGHRATLSCKASAPLGSNHMAWYQQKPGQAPRLLIYGASTRATGVPARFTGSGSGTDFTLTISSLQPEDFATYYCQQANSFPRTFGQGTKVEIK
inhibition of plaque areas (cell-to-cell infection), HSV-2 (HSV-2 [1]): even higher than Fab A inhibition activity | inhibition of plaque areas (cell-to-cell infection), HSV-1 (HSV-1 [2]): even higher than Fab A inhibition activity | post-adsorption inhibition of new infection events and infectious foci (plaques), HSV-2 (HSV-2 [3]): strongly inhibits | post-adsorption inhibition of new infection events and infectious foci (plaques), HSV-1 (HSV-1 [4]): strongly inhibits | neutralisation of HSV-1 isolates (HSV-1 tested isolates): potently neutralises | neutralisation of HSV-2 isolates (HSV-2 tested isolates): potently neutralises | generation of escape mutants under selective pressure (HSV-1 HF strain): no “escape mutants” have been generated | generation of escape mutants under selective pressure (Example 1) (HSV-1 HF strain): no “escape mutants” were generated
